Measured values reported in patent publication US20230383007A1 (BIOSION, published 2023).

Target: T1, human TROP2-his protein (human, UniProt P09758 27-274)
T1 construct: also called biotin labeled human TROP2-his protein
T1 sequence: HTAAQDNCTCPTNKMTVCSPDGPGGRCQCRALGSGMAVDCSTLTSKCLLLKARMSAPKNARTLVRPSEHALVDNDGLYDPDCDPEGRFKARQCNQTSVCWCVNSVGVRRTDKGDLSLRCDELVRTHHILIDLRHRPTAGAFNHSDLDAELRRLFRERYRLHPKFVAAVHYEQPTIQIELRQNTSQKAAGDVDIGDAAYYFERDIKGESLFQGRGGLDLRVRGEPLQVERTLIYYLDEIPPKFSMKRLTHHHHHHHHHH
Assay: competitive ELISA: soluble benchmark pre-mixed with biotin labeled human TROP2-his, added to plate coated with the benchmark (self-competition); unit taken from the x axis (ng/mL)
Experimental: The anti-TROP2 antibodies were tested for their epitope binding in a competitive ELISA assay. Briefly, 100 μl of the benchmark at 1 μg/mL in PBS was coated on 96-well micro plates for 2 hours at 37° C. ELISA plates were washed once with wash buffer (PBS+0.05% v/v Tween-20, PBST) and then blocked with 200 μl blocking buffer (5% w/v non-fatty milk in PBST) for 2 hours at 37° C. While blocking, the anti-TROP2 antibodies of the disclosure or controls were diluted with biotin labeled human TROP2-his protein (SEQ ID NO: 16, 34 ng/mL in 2.5% w/v non-fatty milk in PBST), starting at 80 nM with a 5-fold serial dilution, and incubated at room temperature for 40 minutes. After plate washing 4 times, the antibody/TROP2-his protein mixtures were added to benchmark coated plates, 100 μl per well. After incubation at 37° C. for 40 minutes, plates were washed 4 times again using wash buffer. Then the plates were added and incubated with 100 μl Peroxidase Streptavidin (1:10000 dilution in PBST buffer, Jackson Immunoresearch, Cat #016-030-084) for 40 minutes at 37° C. Plates were washed again using wash buffer. […] The absorbance of each well was read on a microplate reader using dual wavelength mode with 450 nm for TMB and 630 nm as the reference wavelength, and the OD (450-630) values were plotted against antibody concentration. Data was analyzed using Graphpad Prism software and IC₅₀ values were reported.

B1: sacituzumab (benchmark, an analog of sacituzumab, in house made) (antibody, human IgG1, kappa, V domains shown)
VH: SVQLQQSGSELKKPGASVKVSCKASGYTFTNYGMNWVKQAPGQGLKWMGWINTYTGEPTYTDDFKGRFAFSLDTSVSTAYLQISSLKADDTAVYFCARGGFGSSYWYFDVWGQGSLVTVSS
VL: DIQLTQSPSSLSASVGDRVSITCKASQDVSIAVAWYQQKPGKAPKLLIYSASYRYTGVPDRFSGSGSGTDFTLTISSLQPEDFAVYYCQQHYITPLTFGAGTKVEIKR
notes: also called BM; BM1
Question: Which IC50 does the source give for B1 here?
Answer: The IC50 was 0.0543 µg/mL.
